Values of other authors in patent publication US11324773B2, “Compounds, compositions and methods for inhibiting a pathogen and/or modifying mucus” (The University of North Carolina at Chapel Hill, priority 2017, dated 2022).

Tests used:
HBE mucus = details: 30 μM, 24 h, versus controls
expectorated sputum = details: patients with CF, 10 d, 2.5 mg twice daily

In the case of `CC(=O)N[C@@H](CS)C(=O)O` [N-acetylcysteine], the “decrease of viscosity and elasticity of HBE mucus” value (HBE mucus) is given as “by an order of magnitude”.

B1: dornase alfa (protein, UniProt P24855 23-282, looked up)
Deoxyribonuclease-1: LKIAAFNIQTFGETKMSNATLVSYIVQILSRYDIALVQEVRDSHLTAVGKLLDNLNQDAPDTYHYVVSEPLGRNSYKERYLFVYRPDQVSAVDSYYYDDGCEPCGNDTFNREPAIVRFFSRFTEVREFAIVPLHAAPGDAVAEIDALYDVYLDVQEKWGLEDVMLMGDFNAGCSYVRPSQWSSIRLWTSPTFQWLIPDSADTTATPTHCAYDRIVVAGMLLRGAVVPDSALPFNFQAAYGLSDQLAQAISDHYPVEVMLK
notes: conventional mucolytic therapy used to treat CF
In the case of B1, the “reduction of expectorated sputum elasticity” value (expectorated sputum) is listed as 68% and the “reduction of expectorated sputum viscosity” value (expectorated sputum) is listed as 59%.
